Changes are numbered by the printed parent chain.

The experiment concerns the target T1, human TIGIT (human, UniProt Q495A1 22-141, limits assumed).
T1 construct: also called hTIGIT
T1 sequence (looked up): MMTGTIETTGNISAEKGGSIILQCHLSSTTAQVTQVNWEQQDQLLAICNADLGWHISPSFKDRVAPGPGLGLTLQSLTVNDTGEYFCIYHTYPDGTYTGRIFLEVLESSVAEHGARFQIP
Nature of the experiment: monovalent affinity of the hTIGIT IgGs; method not named in Example 14.

B1: TIGIT-55-05 (antibody, V domains shown)
VH: EVQLLESGGGLVQPGGSLRLSCAASGFVFSSYAMNWVRQAPGKGLEWVSTVSGSGGTTYYADSVKGRFTISRDNSKNTLYLQMNSLRAEDTAVYYCARAPYSSSSWFDYWGQGTLVTVSS
VL: DIQMTQSPSSLSASVGDRVTITCRASQSVRSYLNWYQQKPGKAPKLLIYTATSLESGVPSRFSGSGSGTDFTLTISSLQPEDFATYYCQQSYGLPRTFGGGTKVEIK
notes: hTIGIT IgG
For orientation: Kd means the equilibrium constant for the complex coming apart. A higher Kd goes with weaker binding. B1 registered a dissociation constant Kd of 97.6 nM.

B2: TIGIT-55-06 (antibody, V domains shown)
VH: EVQLLESGGGLVQPGGSLRLSCAASGFTFSRYTMNWVRQAPGKGLEWVSGISGSGGGAYYADSVKGRFTISRDNSKNTLYLQMNSLRAEDTAVYYCARNSYGPPRSFGMDVWGQGTLVTVSS
VL: B1 VL with V29I, R30S, S31K, T50G, T52S, E55R, S56G, G93R, L94P, R96L
notes: hTIGIT IgG
The molecule B2 gave a Kd of 153 nM.

B3: TIGIT-55-07 (antibody, V domains shown)
VH: EVQLLESGGGLVQPGGSLRLSCAASGFTFSSYGMTWVRQAPGKGLEWVSAISGRGSSTYYADSVKGRFTISRDNSKNTLYLQMNSLRAEDTAVYYCARTPYRSGWADYWGQGTLVTVSS
VL: DIQMTQSPSSLSASVGDRVTITCRASQNIKTYLNWYQQKPGKAPKLLIYAASSLHTGVPSRFSGSGSGTDFTLTISSLQPEDFATYYCQQTYSIPQTFGGGTKVEIK
notes: hTIGIT IgG
For B3, the affinity, expressed as Kd, was 231 nM.

B4: TIGIT-55-12 (antibody, V domains shown)
VH: EVQLLESGGGLVQPGGSLRLSCAASGFTLSSYAMAWVRQAPGKGLEWVSTLSGSGGSTYYADSVKGRFTISRDNSKNTLYLQMNSLRAEDTAVYYCARVRVGAYDAFDIWGQGTLVTVSS
VL: B3 VL with S9Y, N28S, K30R, T31R, A50R, S53T, H55Q, I94S, Q96F
notes: hTIGIT IgG
B4 returned a Kd of 148 nM.

B5: TIGIT-55-11 (antibody, V domains shown)
VH: EVQLLESGGGLVQPGGSLRLSCAASGFTFTNYGMSWVRQAPGKGLEWVSSISGSGSTTYYADSVKGRFTISRDNSKNTLYLQMNSLRAEDTAVYYCASVKRWGYYFNWWGQGTLVTVSS
VL: DIQMTQSPSSLSASVGDRVTITCRASQNINYYLNWYQQKPGKAPKLLIYGASSLQNGVPSRFSGSGSGTDFTLTISSLQPEDFATYYCQQSYITPYTGGGTKVEIK
notes: hTIGIT IgG
Turning to B5, the Kd stood at 327 nM.

B6: TIGIT-55-08 (antibody, V domains shown)
VH: EVQLLESGGGLVQPGGSLRLSCAASGFMFSDYAMSWVRQAPGKGLEWVSGISGSGGYTYYADSVKGRFTISRDNSKNTLYLQMNSLRAEDTAVYYCTRSWYYYYGMDVWGQGTLVTVSS
VL: DIQMTQSPSSLSASVGDRVTITCRAGQSIRSYLNWYQQKPGKAPKLLIYASSNLQSGVPSRFSGSGSGTDFTLTISSLQPEDFATYYCQQSYSTPLLTFGGGTKVEIK
notes: hTIGIT IgG
With B6, the Kd came out at 113 nM.

B7: TIGIT-55-13 (antibody, V domains shown)
VH: EVQLLESGGGLVQPGGSLRLSCAASGFTFSTYGMNWVRQAPGKGLEWVSTISGSGGSTYFADSVKGRFTISRDNSKNTLYLQMNSLRAEDTAVYYCARNSGWFMPFDYWGQGTLVTVSS
VL: DIQMTQSPSSLSASVGDRVTITCRTSQSISTYLNWYQQKPGKAPKLLIYATSRLQSGVPSRFSGSGSGTDFTLTISSLQPEDFATYYCQQSYTTPLTFGGGTKVEIK
notes: hTIGIT IgG
As to B7, the Kd stood at 112 nM.

B8: TIGIT-55-14 (antibody, V domains shown)
VH: EVQLLESGGGLVQPGGSLRLSCAASGFMFSRYAMSWVRQAPGKGLEWVSSISGSGGTTYYADSVKGRFTISRDNSKNTLYLQMNSLRAEDTAVYYCARRGSGWYIDSWGQGTLVTVSS
VL: B7 VL with T25A, I29V, T31R, A50G, T51S, R53N, Q90E, T93S, L96F
notes: hTIGIT IgG
In the case of B8, binding was put at a Kd of 139 nM.

The values are drawn from patent US20210102195A1 (TWIST BIOSCIENCE, published 2021).
